Data on 3 proteins can be found in paper PMC11202169, “A Novel Fluorescence-Based Microplate Assay for High-Throughput Screening of hSULT1As Inhibitors” (Biosensors, 2024).

Usually Km stands for the substrate concentration at which the rate is half of its maximum. A word on the Vmax: it is the top rate of the reaction or transport when substrate is in excess.

What all share (assay type): biochemical, human
Holding throughout (conditions): other: HN-241 4-O-sulfation

Substrate in data set [1]: CCN1C(=O)c2cccc3c(O)ccc(c23)C1=O
The data set can be described thus: Enzymatic kinetics of hSULT1A2-catalyzed HN-241 4-O-sulfation. On the procedure: (§1) The enzymatic kinetic parameters of hSULT1As-catalyzed HN-241 4-O-sulfation were measured by incubating increasing concentrations of HN-241 with each of the hSULT1As for a certain period. The fitting equations included Equation (2), the Michaelis–Menten equation, and Equation (3) for enzyme kinetics with substrate inhibition. Related kinetic parameters were fitted by GraphPad Prism 8.0 (San Diego, CA, USA). (2) V=Vmax × [S]/Km+[S] (3) V=Vmax × [S]/Km+[S](1+[S]/Ki)
(§2) [S] refers to the concentration of HN-241, Vmax is the maximum rate of hSULT1As-catalyzed HN-241 4-O-sulfation, Km is the substrate concentration at the half Vmax, and Ki represents the dissociation constant for the binding of the substrate to the inhibitory site.

Substrate in data set [2]: CCN1C(=O)c2cccc3c(O)ccc(c23)C1=O
The data set can be described thus: Enzymatic kinetics of hSULT1A3-catalyzed HN-241 4-O-sulfation. Here is the method: as §1, §2

Substrate in data set [3]: CCN1C(=O)c2cccc3c(O)ccc(c23)C1=O
The data set can be described thus: Enzymatic kinetics of hSULT1A1-catalyzed HN-241 4-O-sulfation. On the procedure:
as §1, §2

B1: hSULT1A2 (Homo sapiens) (protein)
chain: MELIQDISRPPLEYVKGVPLIKYFAEALGPLQSFQARPDDLLISTYPKSGTTWVSQILDMIYQGGDLEKCHRAPIFMRVPFLEFKVPGIPSGMETLKNTPAPRLLKTHLPLALLPQTLLDQKVKVVYVARNAKDVAVSYYHFYHMAKVYPHPGTWESFLEKFMAGEVSYGSWYQHVQEWWELSRTHPVLYLFYEDMKENPKREIQKILEFVGRSLPEETVDLMVEHTSFKEMKKNPMTNYTTVRREFMDHSISPFMRKGMAGDWKTTFTVAQNERFDADYAKKMAGCSLSFRSEL
notes: 6-histidine tag (N); TEV site (N); made in house; host or cells: Escherichia coli BL21 (DE3), pET29a(+)
For B1, in data set [1], the Km was determined as 4.47 ± 0.20 µM, the Vmax worked out at 0.00644 µmol/min/mg and the Vmax/Km was found to be 1440 µL/min/mg.

B2: hSULT1A3 (Homo sapiens) (protein)
chain: MELIQDTSRPPLEYVKGVPLIKYFAEALGPLQSFQARPDDLLINTYPKSGTTWVSQILDMIYQGGDLEKCNRAPIYVRVPFLEVNDPGEPSGLETLKDTPPPRLIKSHLPLALLPQTLLDQKVKVVYVARNPKDVAVSYYHFHRMEKAHPEPGTWDSFLEKFMAGEVSYGSWYQHVQEWWELSRTHPVLYLFYEDMKENPKREIQKILEFVGRSLPEETMDFMVQHTSFKEMKKNPMTNYTTVPQELMDHSISPFMRKGMAGDWKTTFTVAQNERFDADYAEKMAGCSLSFRSEL
notes: as for B1
Turning to B2, in data set [2], the Km is 12.90 ± 1.16 µM, the Vmax came out at 0.00881 µmol/min/mg and the Vmax/Km amounted to 683 µL/min/mg.

B3: hSULT1A1 (Homo sapiens) (protein)
chain: MELIQDTSRPPLEYVKGVPLIKYFAEALGPLQSFQARPDDLLISTYPKSGTTWVSQILDMIYQGGDLEKCHRAPIFMRVPFLEFKAPGIPSGMETLKDTPAPRLLKTHLPLALLPQTLLDQKVKVVYVARNAKDVAVSYYHFYHMAKVHPEPGTWDSFLEKFMVGEVSYGSWYQHVQEWWELSRTHPVLYLFYEDMKENPKREIQKILEFVGRSLPEETVDFVVQHTSFKEMKKNPMTNYTTVPQEFMDHSISPFMRKGMAGDWKTTFTVAQNERFDADYAEKMAGCSLSFRSEL
notes: as for B1
On to B3, for which, in data set [3], the Km was 0.91 ± 0.24 µM, the Vmax was 0.0221 ± 0.00443 µmol/min/mg and the Vmax/Km was 24300 µL/min/mg.
